Test results: doi:10.1101/2023.12.06.569572

Biological target: Neurofibromin (NF1), recombinant full-length NF1 isoform 2 (human) (UniProt P21359)
Test: mass photometry
Conditions: remark: other sources report otherwise

## Neurofibromin (NF1), recombinant full-length NF1 isoform 2, P21359 1-2839
  stoichiometry N: 2
